Measured values from publication PMC12995615 (Frontiers in Immunology, 2026).

B1: recombinant bat antibody C05 with human signal peptide (bat C05Hsp) (antibody, V domains shown)
VH: QVQLQESGGGLVQPGESLRLSCVGSGSSFGESTLSYYAVSWVRQAPGKGLEWLSIINAGGGDIDYADSVEGRFTISRDNSKETLYLQMTNLRVEDTGVYYCAKHMSMQQVVSAGWERADLVGDAFDVWGQGTMVTVSS
VL: DIQLTQSPSSLSASVGDRVTLTCQASQDIRKFLNWYQQKPGKGPKLLIYDASNLQRGVPSRFSGGGSGTDFTLIISSLQPEDVGTYYCQQYDGLPFTFGGGTKVVIK
notes: also called bC05Hsp; ReBA
B2: recombinant bat antibody C05 with bat signal peptide (bC05Bsp) (antibody, V domains shown)
VH: B1 VH
VL: B1 VL
notes: also called ReBA

Target: Influenza H1 (A/Brisbane/59/2007) HA Clamp (Influenza A virus …, UniProt D5F1Q8, stabilised)
Assay: ELISA
Conditions: both partners purified

Binder | Kd [nM]
B1 | 0.25
B2 | 0.39
